What is called Kd is the constant that tells how readily two partners part at equilibrium. A high value points to lower affinity. Usually IC50 stands for the concentration needed to halve the response being measured.

Here are results for 28 sequences from the Immune Epitope Database (IEDB).

One assay concerns the target HLA-C*05:01. In words: IEDB peptide-MHC binding, purified MHC/direct/fluorescence; filed as Kd, often an IC50 or EC50 that approximates it; ≥ and ≤ were set here for values at or beyond the usual limits of such assays.
Assay [1] addresses HLA-A*02:01. In words: IEDB peptide-MHC binding, purified MHC/competitive/fluorescence; filed as Kd, often an IC50 or EC50 that approximates it; ≥ and ≤ were set here for values at or beyond the usual limits of such assays.
For the next assay, the target named is HLA-B*58:01. The description is as above. To be noted: source organism: Escherichia coli.
In another assay the target is HLA-B*51:01. The description is as above.
The target in the next assay is HLA-A*02:03. The assay can be described thus: IEDB peptide-MHC binding, purified MHC/direct/fluorescence; filed as Kd, often an IC50 or EC50 that approximates it; ≥ and ≤ were set here for values at or beyond the usual limits of such assays. As to conditions: source organism: Influenza A virus (A/England/654/2007(H1N1)).
The target in another assay is HLA-A*23:01. Described as above.
For the next assay, the target named is HLA-A*02:19. The description is as above. To be noted: source organism: Influenza A virus (A/England/654/2007(H1N1)).
For the next assay, the target named is HLA-A*68:02. The assay is described as above. To be noted: source organism: Influenza A virus (A/England/654/2007(H1N1)).
The target in assay [2] is HLA-A*24:03. The assay is described as above.
Assay [3] deals with HLA-A*03:01. Described as above. As to conditions: source organism: Influenza A virus (A/England/654/2007(H1N1)).
Another assay concerns the target HLA-A*02:16. The assay is described as above. To be noted: source organism: Influenza A virus (A/England/654/2007(H1N1)).
A further assay concerns the target HLA-A*29:02. The assay is described as above. As to conditions: source organism: Influenza A virus (A/England/654/2007(H1N1)).
In the next assay the target is HLA-A*02:11. The assay is described as above. As to conditions: source organism: Influenza A virus (A/England/654/2007(H1N1)).
The next assay concerns the target HLA-A*02:12. Described as above. To be noted: source organism: Influenza A virus (A/England/654/2007(H1N1)).
A further assay concerns the target HLA-B*39:01. In words: IEDB peptide-MHC binding, purified MHC/competitive/fluorescence; filed as Kd, often an IC50 or EC50 that approximates it; ≥ and ≤ were set here for values at or beyond the usual limits of such assays.
Another assay concerns the target HLA-B*57:01. The assay is described as above.
The target of the next assay is HLA-B*15:17. The assay is described as above.
The target in a further assay is HLA-B*15:01. The description is as above.
In a further assay the target is HLA-B*46:01. The description is as above.
The next assay concerns the target HLA-B*18:01. Described as above.
Another assay has as its target HLA-A*26:01. Described as above.
The target in assay [4] is HLA-A*01:01. The assay is described as above. As to conditions: source organism: Influenza A virus (A/Yokohama/22/2002(H1N2)).
A further assay deals with HLA-A*69:01. The assay is described as above. As to conditions: source organism: Influenza A virus (A/Yokohama/22/2002(H1N2)).
For another assay, the target named is HLA-B*27:03. Described as above.
A further assay concerns the target HLA-B*40:01. Described as above.
Assay [5] concerns the target HLA-A*02:01. In words: IEDB peptide-MHC binding, purified MHC/competitive/radioactivity; ≥ and ≤ were set here for values at or beyond the usual limits of such assays.
Assay [6] has as its target HLA-A*01:01. The assay can be described thus: IEDB peptide-MHC binding, purified MHC/direct/fluorescence; filed as Kd, often an IC50 or EC50 that approximates it; ≥ and ≤ were set here for values at or beyond the usual limits of such assays. To be noted: source organism: Reston ebolavirus - Reston.
The target of assay [7] is HLA-B*07:02. The assay can be described thus: IEDB peptide-MHC binding, purified MHC/competitive/fluorescence; ≥ and ≤ were set here for values at or beyond the usual limits of such assays.
Assay [8] addresses HLA-B*07:02. In words: IEDB peptide-MHC binding, purified MHC/competitive/fluorescence; filed as Kd, often an IC50 or EC50 that approximates it; ≥ and ≤ were set here for values at or beyond the usual limits of such assays.
The target in assay [9] is HLA-A*24:03. Described as above.
A further assay concerns the target HLA-A*11:01. In words: IEDB peptide-MHC binding, purified MHC/competitive/fluorescence; ≥ and ≤ were set here for values at or beyond the usual limits of such assays. As to conditions: source organism: Vaccinia virus.
The target of assay [10] is HLA-A*03:01. Described as above.
Another assay addresses HLA-A*24:02. The assay is described as above. To be noted: source organism: Vaccinia virus Copenhagen.
The mark [11] stands for this setting: source organism: Escherichia coli.
Setting [12] is: source organism: Influenza A virus (A/England/654/2007(H1N1)).
Where [13] appears, read: source organism: Influenza A virus (A/Yokohama/22/2002(H1N2)).
The mark [14] stands for this setting: source organism: Reston ebolavirus - Reston (1989).
Setting [15] is: source organism: Vibrio vulnificus CMCP6.
Setting [16] is: source organism: Zaire ebolavirus.
[17] abbreviates: source organism: Human papillomavirus 16.
Setting [18] is: source organism: Vaccinia virus.
[19] abbreviates: source organism: Vaccinia virus Copenhagen.
The mark [20] stands for this setting: source organism: Salmonella enterica subsp. enterica serovar Typhi.
Where [21] appears, read: source organism: Burkholderia mallei ATCC 23344.

As for RAMACSALI, the Kd with HLA-C*05:01 (setting [11]) amounted to 0.347 µM; in the assay with HLA-A*02:01 [1] (setting [11]), 0.0261 µM; in the assay with HLA-B*58:01, 0.0129 µM; with HLA-B*51:01 (setting [11]), 2.97 µM.
WTGMVDGWY: the Kd in the assay with HLA-A*02:03, with HLA-A*23:01 (setting [12]), in the assay with HLA-A*02:19, in the assay with HLA-A*68:02, with HLA-A*24:03 [2] (setting [12]) and with HLA-A*03:01 [3] was ≥ 20 µM each time. The Kd with HLA-A*02:16, with HLA-A*29:02, with HLA-A*02:11, with HLA-A*02:12, with HLA-A*02:01 [1] (setting [13]) and in the assay with HLA-B*39:01 (setting [13]) was ≥ 20 µM throughout. Further, the dissociation constant Kd with HLA-B*57:01 (setting [13]), in the assay with HLA-B*15:17 (setting [13]), with HLA-B*15:01 (setting [13]), in the assay with HLA-B*46:01 (setting [13]), with HLA-B*18:01 (setting [13]) and in the assay with HLA-A*26:01 (setting [13]) was ≥ 20 µM each time. The Kd in the assay with HLA-A*01:01 [4] was 0.0103 µM; with HLA-A*69:01, ≥ 20 µM; in the assay with HLA-B*51:01 (setting [13]), ≥ 20 µM; with HLA-B*27:03 (setting [13]) it was ≥ 20 µM.
Regarding MEIKILHKQ, the equilibrium dissociation constant (Kd) in the assay with HLA-B*40:01 (source organism: Escherichia coli 536) is ≥ 20 µM.
Turning to AIMEKNIML, in the assay with HLA-A*02:01 [5] (source organism: Influenza A virus (A/Alaska/6/1977(H3N2))), the IC50 was 0.104 µM.
In the case of FSDLCNFLI, the Kd with HLA-A*01:01 [6] is 0.153 µM; with HLA-C*05:01 (setting [14]), 0.009 µM; in the assay with HLA-A*02:01 [1] (setting [14]) it was ≥ 20 µM; with HLA-B*39:01 (setting [14]), ≥ 20 µM; with HLA-B*57:01 (setting [14]), ≥ 20 µM; in the assay with HLA-B*15:17 (setting [14]), ≥ 20 µM. The Kd with HLA-B*15:01 (setting [14]), with HLA-B*46:01 (setting [14]), in the assay with HLA-B*18:01 (setting [14]), in the assay with HLA-A*26:01 (setting [14]), with HLA-B*51:01 (setting [14]) and with HLA-B*27:03 (setting [14]) was ≥ 20 µM in each case.
In the assay with HLA-B*40:01 (source organism: Shigella flexneri 5 str. 8401), LESAIGLPM had a dissociation constant Kd of 0.0072 µM.
Regarding MFVSNRWFL, the Kd is 0.002 µM with HLA-A*23:01 (setting [15]) and 0.005 µM with HLA-A*24:03 [2] (setting [15]).
EPVVFSTSD: the IC50 with HLA-B*07:02 [7] (setting [16]) was ≥ 144 µM.
In the assay with HLA-B*07:02 [8] (source organism: Shigella boydii CDC 3083-94), LPYPYSSSA displayed a Kd of 0.0796 µM.
HYGTEGQEF: the Kd in the assay with HLA-A*24:03 [9] (source organism: Escherichia coli APEC O1) came to 0.0029 µM.
As to VLPSPACQLV, in the assay with HLA-A*02:01 [5] (source organism: Homo sapiens), the IC50 was determined as 0.5 µM.
For TVILGVLLL, the IC50 with HLA-A*02:01 [5] (source organism: Homo sapiens) is 0.847 µM.
With VLLLWITAA, the IC50 with HLA-A*02:01 [5] (setting [17]) came out at 0.011 µM.
Regarding SLYNAIATL, the IC50 with HLA-A*02:01 [5] (source organism: Human immunodeficiency virus 1) was found to be 0.036 µM.
Turning to QYVLMPGKV, the Kd with HLA-A*24:03 [9] (setting [11]) turned out to be 2.58 µM.
As for VPRYAFAM, the Kd with HLA-B*07:02 [8] (source organism: Influenza A virus) is ≤ 0.001 µM.
Regarding LVRSETKQK, the IC50 with HLA-A*11:01 amounted to 7.02 µM; with HLA-A*03:01 [10] (setting [18]), 5.02 µM; in the assay with HLA-B*07:02 [7] (setting [18]) it was 34.6 µM.
Take TLIDVCPI: the IC50 in the assay with HLA-A*02:01 [5] (setting [17]) came to 0.033 µM.
Take LLALLSCLTI: the IC50 with HLA-A*02:01 [5] (source organism: Hepacivirus hominis) was 0.385 µM.
Take PSGSTSPRM: the IC50 in the assay with HLA-B*07:02 [7] (setting [16]) was ≥ 202 µM.
With MENLMYALL, the Kd with HLA-B*40:01 (source organism: Bacillus anthracis str. A0488) was found to be 0.0284 µM.
As for IVFYRSGTE, the half-maximal inhibitory concentration (IC50) is ≥ 6580 µM with HLA-A*24:02, ≥ 85.9 µM with HLA-A*03:01 [10] (setting [19]) and ≥ 223 µM with HLA-B*07:02 [7] (setting [19]).
In the case of AELFVAHYM, the equilibrium dissociation constant (Kd) in the assay with HLA-B*40:01 (setting [20]) was 0.0108 µM; with HLA-B*15:01 (setting [20]), ≥ 20 µM.
For the sequence NPIVPSFDM, the IC50 with HLA-B*07:02 [7] (source organism: Influenza A virus (A/Oklahoma/309/2006(H3N2))) is 1.23 µM.
In the case of IPSATKRWG, in the assay with HLA-B*07:02 [7] (source organism: Sudan ebolavirus), the IC50 stood at 49.6 µM.
With LKNDLLENLQ, the IC50 in the assay with HLA-B*07:02 [7] (source organism: Influenza A virus (A/Victoria/1968(H3N2))) is ≥ 495 µM.
For PFFFGFSHF, the results for the Kd with HLA-A*23:01 (setting [21]) and with HLA-A*24:03 [2] (setting [21]) were 0.024 µM and 0.704 µM, respectively.
For NLGNLNVSI, in the assay with HLA-A*02:01 [5] (source organism: Hepatitis B virus subtype ayw), the IC50 was 0.076 µM.
